These results are taken from article PMC3832242.

A word on the stoichiometry N: it is the number of molecules, sites or subunits per partner or assembly.

This experiment has as its target linked SSB dimer with the D. radiodurans linker (SSB-LD-Drl) (E. coli | D. radiodurans). Nature of the experiment: AUC.

In the case of “linked SSB dimer with the D. radiodurans linker (SSB-LD-Drl)”, the stoichiometry N came out at 2.
